Patent publication US20200141935A1, “SYSTEM, METHOD, APPARATUS AND DIAGNOSTIC TEST FOR PREGNANCY” (BARCELONA INSTITUTE FOR GLOBAL HEALTH, priority 2017, published 2020)

Assays:
IgG [1] = assay: Multiplex bead-based immunoassay (Luminex): IgG levels (nMFI) against antigens, compared between groups; type: binding, pregnant women; conditions: for Immunoreactivity: recognition by IgGs at levels above BSA recognition: 641 pregnant Mozambican women 2003-2012, mean nMFI above mean BSA nMFI plus 3 SD; for Infection during pregnacy Infection vs no-infection ratio (95% CI): Mozambican women followed 2011-2012; for Exposure dependence Decrease 2010 vs 2003-2005 Ratio (95% CI) / Exposure dependence Increase 2011-2012 vs 2010 Ratio (95% CI): nMFI ratio at delivery, Mozambique, adjusted by parity, age, treatment and HIV; for PW Mz vs PW Bcn Ratio (95% CI) / Parasite density Low vs High ratio (95% CI): nMFI ratio; for PW Mz vs PW Bcn Ratio (95% CI): pregnant Mozambican women vs pregnant Spanish women (N=49); for Parasite density Low vs High ratio (95% CI): below or above 200 genomes per microliter
Excerpt: (§1) Two multiplex suspension array panels were constructed to quantify IgG responses against P. falciparum recombinant proteins and synthetic peptides, using the xMAP™ technology and the Luminex® 100/200™ System (Luminex® Corp., Austin, Tex.). MagPlex® microspheres (magnetic carboxylated polystyrene microparticles, 5.6 μm) with different spectral signatures were selected for each protein (DBL3X, DBL5ϵ, DBL6ϵ, AMA1 and MSP119), peptides (25 VAR2CSA peptides and pCSP), tetanus toxin and bovine serum albumin (BSA). Antigens were covalently coupled to beads following a modification of the Luminex® Corporation protocol. Protein and peptide multiplex arrays were prepared by pooling together equal volumes of coated beads. Plasma samples or the product of DBS elution were analyzed in duplicate at dilution 1:400 for the protein array and 1:100 for the peptide array. A hyperimmune plasma pool composed by 23 plasmas from malaria infected Mozambican pregnant women (HIP-VAR2CSA) was included in each assay plate, in addition to blanks (wells without sample) to assess background levels. A minimum of 50 microspheres were read per spectral signature and results were exported as crude median fluorescent intensity ([…]). Duplicates were averaged and background MFIs were subtracted. A total of 224 plates were analyzed and the intra-assay variation (mean CV of replicates from 20 plasma samples per plate) ranged from 1.4% to 7.3% for the protein array and from 2.5% to 12.4% for the peptide array. The inter-assay variation (variability of positive pool [HIP-VAR2CSA] between 224 plates) was 5% for the protein array and 26% for the peptide array. Results were normalized (nMFI) to account for plate-to-plate variation by […] the background subtracted MFI of each sample with the value of the positive pool in the same plate and dividing by the median of positive pools in all plates.
(§2) Antibodies were eluted from DBS from Gabon, […] and Kenya, as previously described. Briefly, to achieve a concentration of eluted blood proteins equivalent to a 1:50 plasma dilution antibodies were eluted from four spots of approximately 3 mm in diameter with 200 μl Luminex® assay buffer (1% BSA, 0.05% sodium azide in filtrated PBS [Phosphate-buffered saline]). […]. Controls blood drops were artificially prepared using fresh erythrocytes (blood type 0, assuming a hematocrit approximately of 50%) and freeze plasma from 49 Spanish pregnant women. Filter papers were stored avoiding humidity at −20° C. in Barcelona.
(§3) Presence or absence of antibodies was defined by finite mixture models (FMM) for pregnancy-specific antigens (VAR2CSA peptides and recombinant domains) and by the mean plus 3 standard deviation (SD) of IgG response from pregnant women from Barcelona for general malaria antigens (AMA1, MSP119, and pCSP).
(§4) Data was fitted to a normal distribution by logarithmic transformation of nMFIs. Participant's baseline characteristics and parasitological outcomes were compared between study times and areas by univariate analysis (Fisher's tests for binary outcomes or t-Student test for continuous outcomes). Responses were considered not restricted to malaria when seroprevalences were 5% or high among Spanish pregnant women.
Linear regression models were used to compare antibody levels from Mozambican and Spanish pregnant women. The capacity of antibody levels to mimic malaria trends in Mozambique was analyzed by linear regression models (2010 was compared with 2003-2005 corresponding to a trend of malaria decrease and 2011-2012 with 2010 to a trend of increase) adjusted by treatment, parity, age and HIV.
The impact of P. falciparum infection during pregnancy on antibodies at delivery was assessed in linear regression models adjusted by age, parity, HIV and treatment. Changes in antibody levels due to parasite density (below or above 200) were assessed by linear regression models adjusted by age, parity, HIV and treatment. […]

IgG [2] = assay: Multiplex bead-based immunoassay: seroprevalence (finite mixture models or negative control cutoff); type: binding, pregnant women; conditions: for SeroPrev Delivery %: 239 pregnant Mozambican women followed 2011-2012; for Seroprevalence MQ (%): IPTp with mefloquine; for Seroprevalence K (%): Kenya; for Seroprevalence K (%) / Seroprevalence M (%) / Seroprevalence B (%) / Seroprevalence G (%): at delivery; for MQ (OR): Placebo as reference; for M (OR) / Seroprevalence M (%): Mozambique; for Seroprevalence PL (%): Placebo group; for Seroprevalence A (%) / A (OR): anemia; for A (OR): Non-A as reference; for Seroprevalence Non-A (%): non anemia; for Seroprevalence B (%): Benin; for G (OR) / Seroprevalence G (%): Gabon; for Seroprevalence SP (%): IPTp with sulfadoxine-pyrimethamine; for SP (OR): MQ as reference; for SeroPrev PW Bcn (%): seroprevalence among pregnant Spanish women never exposed to malaria; for Decrease (OR): seroprevalence odds ratio 2010 vs 2003/5, Mozambique; for Decrease (OR) / Increase (OR): adjusted; for Increase (OR): seroprevalence odds ratio 2011/12 vs 2010, Mozambique
Excerpt: as §1, §2, §3, §4
Seroprevalences between countries (Benin, Gabon and Mozambique for HIV-uninfected and Kenya and Mozambique for HIV-infected), between IPTp intervention group (MQ vs SP for HIV-uninfected and MQ vs Placebo for HIV infected) and anemia status were compared by logistic regression models adjusted by parity, age and treatment.
The modification of the associations by HIV infection or parity was assessed by including interaction terms into the regression models.

IgG [3] = assay: Antibody dynamics during pregnancy (time to double, half-life, sero-reversion) from bead-based immunoassay; type: binding, pregnant Mozambican women; conditions: for Antibody dynamics Time to double weeks (95% CI): women with P. falciparum infection on follow-up, log-linear mixed-effects model
Excerpt: as §1
The adjusted effect of infection on antibody levels was analyzed using log-linear mixed-effects regression models incorporating Gaussian random intercepts. […] Time to double the antibody levels (T2x) and half-lives were calculated in weeks from the estimated rates and the boundaries at 95% confidence interval obtained from mixed-effects models for subjects suffering a P. falciparum infection at follow-up independent of antibody status at recruitment (Ab[−or+]/Pf+) and subjects seropositive at recruitment and no infection detected on follow-up (Ab+/Pf−), respectively. In situations that the increase rate is a negative value (rate below 1) or the decay rate is a positive value (rate above 1), the calculated T2x or half-life was reported as infinity. Similarly, the time to sero-reversion was calculated for these subjects using the ratio of the seropositivity cutoff by the average antibody titers at recruitment as decay, i.e. how many times the average titers need to be reduced to be equal the cutoff.

[4] = HIV infected, Kenya as reference
[5] = HIV uninfected, Benin as reference
[6] = Mozambican pregnant women at delivery

B1: pcsp: circumsporozoite peptide of 64 aminoacids (NVDP[NANP]15) (peptide)
peptide: NVDPNANPNANPNANPNANPNANPNANPNANPNANPNANPNANPNANPNANPNANPNANPNANP
Immunoreactivity: recognition by IgGs at levels above BSA recognition (IgG [1]): above BSA recognition
Infection during pregnacy Infection vs no-infection ratio (95% CI) (IgG [1]; nMFI at delivery, adjusted): 3.1 (1.75; 5.49)
Exposure dependence Decrease 2010 vs 2003-2005 Ratio (95% CI) (IgG [1]): 0.49 (0.34; 0.71)
Exposure dependence Increase 2011-2012 vs 2010 Ratio (95% CI) (IgG [1]): 1.1 (0.80; 1.52)
PW Mz vs PW Bcn Ratio (95% CI) (IgG [1]): 8.2 (4.84; 13.87)
Parasite density Low vs High ratio (95% CI) (IgG [1]; adjusted): 1.81 (0.75; 4.37)
SeroPrev Delivery % (IgG [2]): 64%
Seroprevalence MQ (%) (IgG [2]; HIV infected): 12%
Seroprevalence K (%) (IgG [2]; HIV infected): 21%
MQ (OR) (IgG [2]; HIV infected): 0.69 (0.44; 1.07)
M (OR) (IgG [2]; [4]): 0.41 (0.26; 0.64)
Seroprevalence M (%) (IgG [2]; HIV infected): 10%
Seroprevalence PL (%) (IgG [2]; HIV infected): 17%
Seroprevalence A (%) (IgG [2]; HIV infected): 12%
A (OR) (IgG [2]; HIV infected): 0.86 (0.52; 1.41)
Seroprevalence Non-A (%) (IgG [2]; HIV infected): 17%
Seroprevalence B (%) (IgG [2]; HIV uninfected): 44%
G (OR) (IgG [2]; [5]): 0.37 (0.24; 0.57)
Seroprevalence G (%) (IgG [2]; HIV uninfected): 23%
Seroprevalence MQ (%) (IgG [2]; HIV uninfected): 31%
Seroprevalence SP (%) (IgG [2]; HIV uninfected): 34%
M (OR) (IgG [2]; [5]): 0.19 (0.14; 0.26)
Seroprevalence M (%) (IgG [2]; HIV uninfected): 13%
SP (OR) (IgG [2]; HIV uninfected): 1.08 (0.84; 1.38)
Seroprevalence A (%) (IgG [2]; HIV uninfected): 34%
A (OR) (IgG [2]; HIV uninfected): 1.19 (0.94; 1.51)
Seroprevalence Non-A (%) (IgG [2]; HIV uninfected): 31%
Seroprevalence 2003/4 (%) (IgG [2]; [6]): 48%
Seroprevalence 2005 (%) (IgG [2]; [6]): 57%
Seroprevalence 2010 (%) (IgG [2]; [6]): 36%
Seroprevalence 2011 (%) (IgG [2]; [6]): 40%
Seroprevalence 2012 (%) (IgG [2]; [6]): 46%
SeroPrev PW Bcn (%) (IgG [2]): 10%
Decrease (OR) (IgG [2]): 0.43 (0.27; 0.69)
Increase (OR) (IgG [2]): 1.19 (0.80; 1.78)
Antibody dynamics Time to double weeks (95% CI) (IgG [3]): 51.33 (22.30; ∞) weeks

B2: MSP119: recombinant merozoite surface protein-1, 19-kDa, from 3D7 strain (protein)
chain: NISQHQCVKKQCPENSGCFRHLDEREECKCLLNYKQEGDKCVENPNPTCNENNGGCDADATCTEEDSGSSRKKITCECTKPDSYPLFDGIFCS
Immunoreactivity: recognition by IgGs at levels above BSA recognition (IgG [1]): above BSA recognition
Infection during pregnacy Infection vs no-infection ratio (95% CI) (IgG [1]; nMFI at delivery, adjusted): 3.69 (1.83; 7.46)
Parity MG vs PG ratio (95% CI) (IgG [1]; nMFI at delivery, multigravid vs primigravid Mozambican women, adjusted): 1.6 (0.6; 4.29)
Exposure dependence Decrease 2010 vs 2003-2005 Ratio (95% CI) (IgG [1]): 0.43 (0.28; 0.65)
Exposure dependence Increase 2011-2012 vs 2010 Ratio (95% CI) (IgG [1]): 0.88 (0.60; 1.30)
PW Mz vs PW Bcn Ratio (95% CI) (IgG [1]): 85.07 (46.72; 154.9)
Parasite density Low vs High ratio (95% CI) (IgG [1]; adjusted): 2.55 (0.98; 6.63)
SeroPrev Delivery % (IgG [2]): 89%
Seroprevalence MQ (%) (IgG [2]; HIV infected): 85%
Seroprevalence K (%) (IgG [2]; HIV infected): 88%
MQ (OR) (IgG [2]; HIV infected): 0.84 (0.54; 1.32)
M (OR) (IgG [2]; [4]): 0.73 (0.46; 1.16)
Seroprevalence M (%) (IgG [2]; HIV infected): 85%
Seroprevalence PL (%) (IgG [2]; HIV infected): 87%
Seroprevalence A (%) (IgG [2]; HIV infected): 85%
A (OR) (IgG [2]; HIV infected): 0.90 (0.56; 1.45)
Seroprevalence Non-A (%) (IgG [2]; HIV infected): 87%
Seroprevalence B (%) (IgG [2]; HIV uninfected): 99%
G (OR) (IgG [2]; [5]): 0.08 (0.04; 0.18)
Seroprevalence G (%) (IgG [2]; HIV uninfected): 84%
Seroprevalence MQ (%) (IgG [2]; HIV uninfected): 94%
Seroprevalence SP (%) (IgG [2]; HIV uninfected): 94%
M (OR) (IgG [2]; [5]): 0.13 (0.07; 0.26)
Seroprevalence M (%) (IgG [2]; HIV uninfected): 89%
SP (OR) (IgG [2]; HIV uninfected): 1.02 (0.63; 1.66)
Seroprevalence A (%) (IgG [2]; HIV uninfected): 94%
A (OR) (IgG [2]; HIV uninfected): 0.95 (0.60; 1.51)
Seroprevalence Non-A (%) (IgG [2]; HIV uninfected): 95%
Seroprevalence in Tanzania (IgG [2]; HIV-uninfected women, area of Tanzania where no malaria infection was observed): 48%
Seroprevalence in 2003-2005 (IgG [2]; Mozambican pregnant women at delivery, 2003-2005 pooled): 94%
Seroprevalence 2003/4 (%) (IgG [2]; [6]): 90%
Seroprevalence 2005 (%) (IgG [2]; [6]): 99%
Seroprevalence 2010 (%) (IgG [2]; [6]): 94%
Seroprevalence 2011 (%) (IgG [2]; [6]): 84%
Seroprevalence in 2011-2012 (IgG [2]; Mozambican pregnant women at delivery, 2011-2012 pooled): 87%
Seroprevalence 2012 (%) (IgG [2]; [6]): 90%
SeroPrev PW Bcn (%) (IgG [2]): 4%
Decrease (OR) (IgG [2]): 0.81 (0.31; 2.14)
Increase (OR) (IgG [2]): 0.37 (0.19; 0.74)
Antibody dynamics Sero-revertion weeks (95% CI) (IgG [3]; time to sero-negativisation, seropositive at recruitment, no infection on follow-up): 385.42 (207.36; 2728.50) weeks
Antibody dynamics Time to double weeks (95% CI) (IgG [3]): 31.69 (15.65; ∞) weeks
